Measurements: patent US20020022239A1, “PHYTOFLUORS AS FLUORESCENT LABELS” (priority 1999, published 2002)
Residue numbers refer to the chain shown, from its start. In names and notes the source's numbering stands.

B1: cph2a (N390): first 390 amino acid residues of Cph2 (SLL0821), N-terminal phytochrome-related domain (protein, UniProt Q55434 1-390, looked up, fragment)
chain: MNPNRSLEDFLRNVINKFHRALTLRETLQVIVEEARIFLGVDRVKIYKFASDGSGEVLAEAVNRAALPSLLGLHFPVEDIPPQAREELGNQRKMIAVDVAHRRKKSHELSGRISPTEHSNGHYTTVDSCHIQYLLAMGVLSSLTVPVMQDQQLWGIMAVHHSKPRRFTEQEWETMALLSKEVSLAITQSQLSRQVHQQQVQEALVQRLETTVAQYGDRPETWQYALETVGQAVEADGAVLYIAPDLTGSVAQHYQWNLRFDWGNWLETSLWQELMRGQPSAAMEPMAAVQSTWEKPRPFTSVAPLPPTNCVPHGYTLGELEQRSDWIAPPESLSAENFQSFLIVPLAADQQWVGSLILLRKEKSLVKHWAGKRGIDRRNILPRLSFEAWE
B2: Cph2-N197: Strep-Tagged N-terminal 197 amino acid region of Cph2 (SEQ ID NO: 9), module 1 only (protein)
chain: KLAVRAISRLQSLPGGDIGALCDTVVEDVQRLTGYDRVMVYQFHEDDHGEVVSEIRRSDLEPYLGLHYPATDIPQAARFLFKQNRVRMICDCNATPVKVVQSEELKRPLCLVNSTLRAPHGCHTQYMANMGSVASLALAIVVKGKDSSKLWGLVVGHHCSPRYVPFPLRYACEFLMQAFGLQLQMELQLASQLAEK
modifications: Strep-Tag
B3: Cph1 (N514) R222G: site-directed single mutant R222G of Cph1 (N514) (protein, UniProt Q55168 1-514, looked up, variant R222G)
chain: MATTVQLSDQSLRQLETLAIHTAHLIQPHGLVVVLQEPDLTISQISANCTGILGRSPEDLLGRTLGEVFDSFQIDPIQSRLTAGQISSLNPSKLWARVMGDDFVIFDGVFHRNSDGLLVCELEPAYTSDNLPFLGFYHMANAALNRLRQQANLRDFYDVIVEEVRRMTGFDRVMLYRFDENNHGDVIAEDKRDDMEPYLGLHYPESDIPQPARRLFIHNPIGVIPDVYGVAVPLTPAVNPSTNRAVDLTESILRSAYHCHLTYLKNMGVGASLTISLIKDGHLWGLIACHHQTPKVIPFELRKACEFFGRVVFSNISAQEDTETFDYRVQLAEHEAVLLDKMTTAADFVEGLTNHPDRLLGLTGSQGAAICFGEKLILVGETPDEKAVQYLLQWLENREVQDVFFTSSLSQIYPDAVNFKSVASGLLAIPIARHNFLLWFRPEVLQTVNWGGDPNHAYEATQEDGKIELHPRQSFDLWKEIVRLQSLPWQSVEIQSALALKKAIVNLILRQAEE
modifications: N514 fragment
B4: Cph1 (N514) D171A: site-directed single mutant D171A of Cph1 (N514) (protein, UniProt Q55168 1-514, looked up, variant D171A)
chain: B3 chain with D171A, G222R
modifications: N514 fragment
B5: Cph1 (N514) DR171/2AA: double mutant D171A/R172A of Cph1 (N514) (protein, UniProt Q55168 1-514, looked up, variant D171A R172A)
chain: B3 chain with D171A, R172A, G222R
modifications: N514 fragment
B6: Cph1 (N514) Wild Type: N514 deletion mutant of Synechocystis sp. PCC 6803 apophytochrome Cph1, wild-type sequence (protein, UniProt Q55168 1-514, looked up, fragment)
chain: B3 chain with G222R
B7: Cph1 (N514) DR171/2AG: double mutant D171A/R172G of Cph1 (N514) (protein, UniProt Q55168 1-514, looked up, variant D171A R172G)
chain: B3 chain with D171A, R172G, G222R
modifications: N514 fragment

Test: Covalent bilin (PCB) binding of recombinant apophytochrome polypeptides upon incubation with PCB (zinc blot)
Conditions: for covalent binding of PCB: incubation with PCB; for PCB Binding: site-directed mutants of Cph1 (N514)
From the text: This work thus confirms that the structural motif illustrated in FIG. 2 represents the bilin-binding domain of the ‘phytochrome superfamily’ from which new phytofluors of different colors can be devised.
Based on the multiple sequence alignment shown in FIG. 2, and using methods described in W098/04700, a bacterial expression vector express a Strep-Tagged version of N-terminal 197 amino acid region of Cph2 (Cph2-N197) that encompassed ‘module 1’ only was constructed (see, FIG. 3).
To address the importance of conserved residues in the bilin lyase domain of Cph1 to bilin attachment and spectral properties of its bilin adducts, site-directed mutagenesis of some of these residues were undertaken. Charged residues D171, R172, E189 and R222 of Cph1 (N514) were mutagenized in the initial studies.

| Molecule | covalent binding of PCB | PCB Binding |
| --- | --- | --- |
| B1 | covalently bind PCB |  |
| B2 | yielded a covalent biliprotein adduct |  |
| B3 |  | yes |
| B4 |  | yes |
| B5 |  | no |
| B6 |  | yes |
| B7 |  | no |
